Test results as given in publication PMC5431086, “The Rational Design of Therapeutic Peptides for Aminopeptidase N using a Substrate-Based Approach” (Scientific Reports, 2017).

Biological target: recombinant human aminopeptidase N (hAPN) (human) (UniProt P15144)
Assay: enzyme inhibition assay (competition with the fluorogenic substrate H-Ala-AMC); 0.1 μM APN, 100 μM H-Ala-AMC, 100 mM Tris pH 7.2, Brij 35 0.0002% w/v, 37 °C, triplicate; inhibition competitive, Ki from the IC50 by the Cheng-Prusoff equation

cyc-nHSPW (peptide)
Ki: > 500 µM

nDQIY (peptide)
IC50: > 500 µM

nHSPW (peptide)
IC50: 6.5 µM
